T1: human GLP-2 receptor (hGLP2-R) (human, UniProt O95838 1-553)
T1 sequence (looked up): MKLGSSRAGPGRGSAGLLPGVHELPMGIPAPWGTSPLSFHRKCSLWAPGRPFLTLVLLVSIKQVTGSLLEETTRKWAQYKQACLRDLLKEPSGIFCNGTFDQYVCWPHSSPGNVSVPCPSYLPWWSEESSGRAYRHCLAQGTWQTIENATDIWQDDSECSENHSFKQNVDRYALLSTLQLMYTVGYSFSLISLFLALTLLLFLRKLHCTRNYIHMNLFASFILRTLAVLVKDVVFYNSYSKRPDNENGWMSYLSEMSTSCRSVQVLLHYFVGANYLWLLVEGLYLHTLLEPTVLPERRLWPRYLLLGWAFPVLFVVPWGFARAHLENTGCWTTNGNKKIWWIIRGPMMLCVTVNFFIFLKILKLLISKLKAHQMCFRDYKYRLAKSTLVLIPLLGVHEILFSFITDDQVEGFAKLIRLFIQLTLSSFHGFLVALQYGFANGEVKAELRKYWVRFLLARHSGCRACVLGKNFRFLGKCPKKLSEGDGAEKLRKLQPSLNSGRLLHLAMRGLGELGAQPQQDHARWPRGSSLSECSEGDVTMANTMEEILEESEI


Experiments:
[1] = biological target: human glucagon-like peptide 1 receptor (GLP-1 R) (human, UniProt P43220 24-463); assay: cell-based or functional assay
[2] = biological target: T1, human GLP-2 receptor (hGLP2-R); assay: cell-based or functional assay

EC50 GLP-1 (nM); cAMP response [1]	EC50 GLP-2 (nM); cAMP response [2]	Binder
1.8 nM	0.27 nM	HXEGTFSSELATILDXQAARDFIAWLIAHKITD (HELM PEPTIDE1{H.[Aib].E.G.T.F.S.S.E.L.A.T.I.L.D.K.Q.A.A.R.D.F.I.A.W.L.I.A.H.K.I.T.D}|PEPTIDE2{[O=C(O)CCCCCCCCCCCCCCCCC(=O)[*:2]].[gGlu]}$PEPTIDE1,PEPTIDE2,16:R3-2:R2$$$V2.0; SMILES CC[C@H](C)[C@H](NC(=O)[C@H](CC(C)C)NC(=O)[C@H](Cc1c[nH]c2ccccc12)NC(=O)[C@H](C)NC(=O)[C@@H](NC(=O)[C@H](Cc1ccccc1)NC(=O)[C@H](CC(=O)O)NC(=O)[C@H](CCCNC(=N)N)NC(=O)[C@H](C)NC(=O)[C@H](C)NC(=O)[C@H](CCC(N)=O)NC(=O)[C@H](CCCCNC(=O)CC[C@H](NC(=O)CCCCCCCCCCCCCCCCC(=O)O)C(=O)O)NC(=O)[C@H](CC(=O)O)NC(=O)[C@H](CC(C)C)NC(=O)[C@@H](NC(=O)[C@@H](NC(=O)[C@H](C)NC(=O)[C@H](CC(C)C)NC(=O)[C@H](CCC(=O)O)NC(=O)[C@H](CO)NC(=O)[C@H](CO)NC(=O)[C@H](Cc1ccccc1)NC(=O)[C@@H](NC(=O)CNC(=O)[C@H](CCC(=O)O)NC(=O)C(C)(C)NC(=O)[C@@H](N)Cc1c[nH]cn1)[C@@H](C)O)[C@@H](C)O)[C@@H](C)CC)[C@@H](C)CC)C(=O)N[C@@H](C)C(=O)N[C@@H](Cc1c[nH]cn1)C(=O)N[C@@H](CCCCN)C(=O)N[C@H](C(=O)N[C@H](C(=O)N[C@@H](CC(=O)O)C(=O)O)[C@@H](C)O)[C@@H](C)CC) [Compound 21]
0.23 nM	0.2 nM	HXEGSFTSELATILDXQAARDFIAWLIAHKITD (HELM PEPTIDE1{H.[Aib].E.G.S.F.T.S.E.L.A.T.I.L.D.K.Q.A.A.R.D.F.I.A.W.L.I.A.H.K.I.T.D}|PEPTIDE2{[O=C(O)CCCCCCCCCCCCCCCCC(=O)[*:2]].[gGlu]}$PEPTIDE1,PEPTIDE2,16:R3-2:R2$$$V2.0; SMILES CC[C@H](C)[C@H](NC(=O)[C@H](CC(C)C)NC(=O)[C@H](Cc1c[nH]c2ccccc12)NC(=O)[C@H](C)NC(=O)[C@@H](NC(=O)[C@H](Cc1ccccc1)NC(=O)[C@H](CC(=O)O)NC(=O)[C@H](CCCNC(=N)N)NC(=O)[C@H](C)NC(=O)[C@H](C)NC(=O)[C@H](CCC(N)=O)NC(=O)[C@H](CCCCNC(=O)CC[C@H](NC(=O)CCCCCCCCCCCCCCCCC(=O)O)C(=O)O)NC(=O)[C@H](CC(=O)O)NC(=O)[C@H](CC(C)C)NC(=O)[C@@H](NC(=O)[C@@H](NC(=O)[C@H](C)NC(=O)[C@H](CC(C)C)NC(=O)[C@H](CCC(=O)O)NC(=O)[C@H](CO)NC(=O)[C@@H](NC(=O)[C@H](Cc1ccccc1)NC(=O)[C@H](CO)NC(=O)CNC(=O)[C@H](CCC(=O)O)NC(=O)C(C)(C)NC(=O)[C@@H](N)Cc1c[nH]cn1)[C@@H](C)O)[C@@H](C)O)[C@@H](C)CC)[C@@H](C)CC)C(=O)N[C@@H](C)C(=O)N[C@@H](Cc1c[nH]cn1)C(=O)N[C@@H](CCCCN)C(=O)N[C@H](C(=O)N[C@H](C(=O)N[C@@H](CC(=O)O)C(=O)O)[C@@H](C)O)[C@@H](C)CC) [Compound 22]
0.21 nM	0.17 nM	HXEGSFTSELATILDXQAARDFIAWLIEHKITD (HELM PEPTIDE1{H.[Aib].E.G.S.F.T.S.E.L.A.T.I.L.D.K.Q.A.A.R.D.F.I.A.W.L.I.E.H.K.I.T.D}|PEPTIDE2{[O=C(O)CCCCCCCCCCCCCCCCC(=O)[*:2]].[gGlu]}$PEPTIDE1,PEPTIDE2,16:R3-2:R2$$$V2.0; SMILES CC[C@H](C)[C@H](NC(=O)[C@H](Cc1ccccc1)NC(=O)[C@H](CC(=O)O)NC(=O)[C@H](CCCNC(=N)N)NC(=O)[C@H](C)NC(=O)[C@H](C)NC(=O)[C@H](CCC(N)=O)NC(=O)[C@H](CCCCNC(=O)CC[C@H](NC(=O)CCCCCCCCCCCCCCCCC(=O)O)C(=O)O)NC(=O)[C@H](CC(=O)O)NC(=O)[C@H](CC(C)C)NC(=O)[C@@H](NC(=O)[C@@H](NC(=O)[C@H](C)NC(=O)[C@H](CC(C)C)NC(=O)[C@H](CCC(=O)O)NC(=O)[C@H](CO)NC(=O)[C@@H](NC(=O)[C@H](Cc1ccccc1)NC(=O)[C@H](CO)NC(=O)CNC(=O)[C@H](CCC(=O)O)NC(=O)C(C)(C)NC(=O)[C@@H](N)Cc1c[nH]cn1)[C@@H](C)O)[C@@H](C)O)[C@@H](C)CC)C(=O)N[C@@H](C)C(=O)N[C@@H](Cc1c[nH]c2ccccc12)C(=O)N[C@@H](CC(C)C)C(=O)N[C@H](C(=O)N[C@@H](CCC(=O)O)C(=O)N[C@@H](Cc1c[nH]cn1)C(=O)N[C@@H](CCCCN)C(=O)N[C@H](C(=O)N[C@H](C(=O)N[C@@H](CC(=O)O)C(=O)O)[C@@H](C)O)[C@@H](C)CC)[C@@H](C)CC) [Compound 24]
0.13 nM	0.24 nM	HXEGTFTSELATILDXQAARDFIAWLIAHKITD (HELM PEPTIDE1{H.[Aib].E.G.T.F.T.S.E.L.A.T.I.L.D.K.Q.A.A.R.D.F.I.A.W.L.I.A.H.K.I.T.D}|PEPTIDE2{[O=C(O)CCCCCCCCCCCCCCCCC(=O)[*:2]].[gGlu]}$PEPTIDE1,PEPTIDE2,16:R3-2:R2$$$V2.0; SMILES CC[C@H](C)[C@H](NC(=O)[C@H](CC(C)C)NC(=O)[C@H](Cc1c[nH]c2ccccc12)NC(=O)[C@H](C)NC(=O)[C@@H](NC(=O)[C@H](Cc1ccccc1)NC(=O)[C@H](CC(=O)O)NC(=O)[C@H](CCCNC(=N)N)NC(=O)[C@H](C)NC(=O)[C@H](C)NC(=O)[C@H](CCC(N)=O)NC(=O)[C@H](CCCCNC(=O)CC[C@H](NC(=O)CCCCCCCCCCCCCCCCC(=O)O)C(=O)O)NC(=O)[C@H](CC(=O)O)NC(=O)[C@H](CC(C)C)NC(=O)[C@@H](NC(=O)[C@@H](NC(=O)[C@H](C)NC(=O)[C@H](CC(C)C)NC(=O)[C@H](CCC(=O)O)NC(=O)[C@H](CO)NC(=O)[C@@H](NC(=O)[C@H](Cc1ccccc1)NC(=O)[C@@H](NC(=O)CNC(=O)[C@H](CCC(=O)O)NC(=O)C(C)(C)NC(=O)[C@@H](N)Cc1c[nH]cn1)[C@@H](C)O)[C@@H](C)O)[C@@H](C)O)[C@@H](C)CC)[C@@H](C)CC)C(=O)N[C@@H](C)C(=O)N[C@@H](Cc1c[nH]cn1)C(=O)N[C@@H](CCCCN)C(=O)N[C@H](C(=O)N[C@H](C(=O)N[C@@H](CC(=O)O)C(=O)O)[C@@H](C)O)[C@@H](C)CC) [Compound 23]
0.094 nM	0.33 nM	HXEGTFTSELATILDXQAARDFIAWLIEHKITD (HELM PEPTIDE1{H.[Aib].E.G.T.F.T.S.E.L.A.T.I.L.D.K.Q.A.A.R.D.F.I.A.W.L.I.E.H.K.I.T.D}|PEPTIDE2{[O=C(O)CCCCCCCCCCCCCCCCC(=O)[*:2]].[gGlu]}$PEPTIDE1,PEPTIDE2,16:R3-2:R2$$$V2.0; SMILES CC[C@H](C)[C@H](NC(=O)[C@H](Cc1ccccc1)NC(=O)[C@H](CC(=O)O)NC(=O)[C@H](CCCNC(=N)N)NC(=O)[C@H](C)NC(=O)[C@H](C)NC(=O)[C@H](CCC(N)=O)NC(=O)[C@H](CCCCNC(=O)CC[C@H](NC(=O)CCCCCCCCCCCCCCCCC(=O)O)C(=O)O)NC(=O)[C@H](CC(=O)O)NC(=O)[C@H](CC(C)C)NC(=O)[C@@H](NC(=O)[C@@H](NC(=O)[C@H](C)NC(=O)[C@H](CC(C)C)NC(=O)[C@H](CCC(=O)O)NC(=O)[C@H](CO)NC(=O)[C@@H](NC(=O)[C@H](Cc1ccccc1)NC(=O)[C@@H](NC(=O)CNC(=O)[C@H](CCC(=O)O)NC(=O)C(C)(C)NC(=O)[C@@H](N)Cc1c[nH]cn1)[C@@H](C)O)[C@@H](C)O)[C@@H](C)O)[C@@H](C)CC)C(=O)N[C@@H](C)C(=O)N[C@@H](Cc1c[nH]c2ccccc12)C(=O)N[C@@H](CC(C)C)C(=O)N[C@H](C(=O)N[C@@H](CCC(=O)O)C(=O)N[C@@H](Cc1c[nH]cn1)C(=O)N[C@@H](CCCCN)C(=O)N[C@H](C(=O)N[C@H](C(=O)N[C@@H](CC(=O)O)C(=O)O)[C@@H](C)O)[C@@H](C)CC)[C@@H](C)CC) [Compound 25]
0.49 nM	0.083 nM	HXDGSFSSELATILDXQAARDFIAWLIQHKITD (HELM PEPTIDE1{H.[Aib].D.G.S.F.S.S.E.L.A.T.I.L.D.K.Q.A.A.R.D.F.I.A.W.L.I.Q.H.K.I.T.D}|PEPTIDE2{[O=C(O)CCCCCCCCCCCCCCCCC(=O)[*:2]].[gGlu]}$PEPTIDE1,PEPTIDE2,16:R3-2:R2$$$V2.0; SMILES CC[C@H](C)[C@H](NC(=O)[C@H](Cc1ccccc1)NC(=O)[C@H](CC(=O)O)NC(=O)[C@H](CCCNC(=N)N)NC(=O)[C@H](C)NC(=O)[C@H](C)NC(=O)[C@H](CCC(N)=O)NC(=O)[C@H](CCCCNC(=O)CC[C@H](NC(=O)CCCCCCCCCCCCCCCCC(=O)O)C(=O)O)NC(=O)[C@H](CC(=O)O)NC(=O)[C@H](CC(C)C)NC(=O)[C@@H](NC(=O)[C@@H](NC(=O)[C@H](C)NC(=O)[C@H](CC(C)C)NC(=O)[C@H](CCC(=O)O)NC(=O)[C@H](CO)NC(=O)[C@H](CO)NC(=O)[C@H](Cc1ccccc1)NC(=O)[C@H](CO)NC(=O)CNC(=O)[C@H](CC(=O)O)NC(=O)C(C)(C)NC(=O)[C@@H](N)Cc1c[nH]cn1)[C@@H](C)O)[C@@H](C)CC)C(=O)N[C@@H](C)C(=O)N[C@@H](Cc1c[nH]c2ccccc12)C(=O)N[C@@H](CC(C)C)C(=O)N[C@H](C(=O)N[C@@H](CCC(N)=O)C(=O)N[C@@H](Cc1c[nH]cn1)C(=O)N[C@@H](CCCCN)C(=O)N[C@H](C(=O)N[C@H](C(=O)N[C@@H](CC(=O)O)C(=O)O)[C@@H](C)O)[C@@H](C)CC)[C@@H](C)CC) [reference compound A]
